Data: patent US20220298218A1 (ANTAG THERAPEUTICS, published 2022)
*1 amine or outer side, *2 acyl side, *3 side chain or, on linkers, in order; H or OH if unused. Where no end group is shown, it is not given here. Side-chain parts run from the residue outwards. [ ]: non-standard residue; d: D form. The star is where a group is joined. d(γGlu) = O=C(O)[C@@H](CCC(=O)[*:2])N[*:1]; C18 diacid = O=C(O)CCCCCCCCCCCCCCCCC(=O)*; C16 diacid = O=C(O)CCCCCCCCCCCCCCC(=O)*; γGlu = O=C(O)[C@H](CCC(=O)[*:2])N[*:1]; Nle = CCCC[C@H](N)C(=O)O; AEEA = NCCOCCOCC(=O)O; Aib = CC(C)(N)C(=O)O

B1: AT693 (peptide)
peptide: EGTFISEYSIALEKIK([AEEA-AEEA-γGlu-C18 diacid])QQEFVEWLLAQKPSSGAPPPS-OH
modifications: N-terminus assumed
SMILES: CC[C@H](C)[C@H](NC(=O)[C@H](CO)NC(=O)[C@H](Cc1ccc(O)cc1)NC(=O)[C@H](CCC(=O)O)NC(=O)[C@H](CO)NC(=O)[C@@H](NC(=O)[C@H](Cc1ccccc1)NC(=O)[C@@H](NC(=O)CNC(=O)[C@@H](N)CCC(=O)O)[C@@H](C)O)[C@@H](C)CC)C(=O)N[C@@H](C)C(=O)N[C@@H](CC(C)C)C(=O)N[C@@H](CCC(=O)O)C(=O)N[C@@H](CCCCN)C(=O)N[C@H](C(=O)N[C@@H](CCCCNC(=O)COCCOCCNC(=O)COCCOCCNC(=O)CC[C@H](NC(=O)CCCCCCCCCCCCCCCCC(=O)O)C(=O)O)C(=O)N[C@@H](CCC(N)=O)C(=O)N[C@@H](CCC(N)=O)C(=O)N[C@@H](CCC(=O)O)C(=O)N[C@@H](Cc1ccccc1)C(=O)N[C@H](C(=O)N[C@@H](CCC(=O)O)C(=O)N[C@@H](Cc1c[nH]c2ccccc12)C(=O)N[C@@H](CC(C)C)C(=O)N[C@@H](CC(C)C)C(=O)N[C@@H](C)C(=O)N[C@@H](CCC(N)=O)C(=O)N[C@@H](CCCCN)C(=O)N1CCC[C@H]1C(=O)N[C@@H](CO)C(=O)N[C@@H](CO)C(=O)NCC(=O)N[C@@H](C)C(=O)N1CCC[C@H]1C(=O)N1CCC[C@H]1C(=O)N1CCC[C@H]1C(=O)N[C@@H](CO)C(=O)O)C(C)C)[C@@H](C)CC
B2: AT694 (peptide)
peptide: EGTFISEYSIA[Nle]EKIK([AEEA-AEEA-γGlu-C18 diacid])QQEFVEWLLAQKPSSGAPPPS-OH
modifications: N-terminus assumed
SMILES: CCCC[C@H](NC(=O)[C@H](C)NC(=O)[C@@H](NC(=O)[C@H](CO)NC(=O)[C@H](Cc1ccc(O)cc1)NC(=O)[C@H](CCC(=O)O)NC(=O)[C@H](CO)NC(=O)[C@@H](NC(=O)[C@H](Cc1ccccc1)NC(=O)[C@@H](NC(=O)CNC(=O)[C@@H](N)CCC(=O)O)[C@@H](C)O)[C@@H](C)CC)[C@@H](C)CC)C(=O)N[C@@H](CCC(=O)O)C(=O)N[C@@H](CCCCN)C(=O)N[C@H](C(=O)N[C@@H](CCCCNC(=O)COCCOCCNC(=O)COCCOCCNC(=O)CC[C@H](NC(=O)CCCCCCCCCCCCCCCCC(=O)O)C(=O)O)C(=O)N[C@@H](CCC(N)=O)C(=O)N[C@@H](CCC(N)=O)C(=O)N[C@@H](CCC(=O)O)C(=O)N[C@@H](Cc1ccccc1)C(=O)N[C@H](C(=O)N[C@@H](CCC(=O)O)C(=O)N[C@@H](Cc1c[nH]c2ccccc12)C(=O)N[C@@H](CC(C)C)C(=O)N[C@@H](CC(C)C)C(=O)N[C@@H](C)C(=O)N[C@@H](CCC(N)=O)C(=O)N[C@@H](CCCCN)C(=O)N1CCC[C@H]1C(=O)N[C@@H](CO)C(=O)N[C@@H](CO)C(=O)NCC(=O)N[C@@H](C)C(=O)N1CCC[C@H]1C(=O)N1CCC[C@H]1C(=O)N1CCC[C@H]1C(=O)N[C@@H](CO)C(=O)O)C(C)C)[C@@H](C)CC
B3: AT695 (peptide)
peptide: EGTFISEYSI[Aib]LEKIK([AEEA-AEEA-γGlu-C18 diacid])QQEFVEWLLAQKPSSGAPPPS-OH
modifications: N-terminus assumed
SMILES: CC[C@H](C)[C@H](NC(=O)[C@H](CCCCN)NC(=O)[C@H](CCC(=O)O)NC(=O)[C@H](CC(C)C)NC(=O)C(C)(C)NC(=O)[C@@H](NC(=O)[C@H](CO)NC(=O)[C@H](Cc1ccc(O)cc1)NC(=O)[C@H](CCC(=O)O)NC(=O)[C@H](CO)NC(=O)[C@@H](NC(=O)[C@H](Cc1ccccc1)NC(=O)[C@@H](NC(=O)CNC(=O)[C@@H](N)CCC(=O)O)[C@@H](C)O)[C@@H](C)CC)[C@@H](C)CC)C(=O)N[C@@H](CCCCNC(=O)COCCOCCNC(=O)COCCOCCNC(=O)CC[C@H](NC(=O)CCCCCCCCCCCCCCCCC(=O)O)C(=O)O)C(=O)N[C@@H](CCC(N)=O)C(=O)N[C@@H](CCC(N)=O)C(=O)N[C@@H](CCC(=O)O)C(=O)N[C@@H](Cc1ccccc1)C(=O)N[C@H](C(=O)N[C@@H](CCC(=O)O)C(=O)N[C@@H](Cc1c[nH]c2ccccc12)C(=O)N[C@@H](CC(C)C)C(=O)N[C@@H](CC(C)C)C(=O)N[C@@H](C)C(=O)N[C@@H](CCC(N)=O)C(=O)N[C@@H](CCCCN)C(=O)N1CCC[C@H]1C(=O)N[C@@H](CO)C(=O)N[C@@H](CO)C(=O)NCC(=O)N[C@@H](C)C(=O)N1CCC[C@H]1C(=O)N1CCC[C@H]1C(=O)N1CCC[C@H]1C(=O)N[C@@H](CO)C(=O)O)C(C)C
B4: AT696 (peptide)
peptide: EGTFISEYSI[Aib][Nle]EKIK([AEEA-AEEA-γGlu-C18 diacid])QQEFVEWLLAQKPSSGAPPPS-OH
modifications: N-terminus assumed
SMILES: CCCC[C@H](NC(=O)C(C)(C)NC(=O)[C@@H](NC(=O)[C@H](CO)NC(=O)[C@H](Cc1ccc(O)cc1)NC(=O)[C@H](CCC(=O)O)NC(=O)[C@H](CO)NC(=O)[C@@H](NC(=O)[C@H](Cc1ccccc1)NC(=O)[C@@H](NC(=O)CNC(=O)[C@@H](N)CCC(=O)O)[C@@H](C)O)[C@@H](C)CC)[C@@H](C)CC)C(=O)N[C@@H](CCC(=O)O)C(=O)N[C@@H](CCCCN)C(=O)N[C@H](C(=O)N[C@@H](CCCCNC(=O)COCCOCCNC(=O)COCCOCCNC(=O)CC[C@H](NC(=O)CCCCCCCCCCCCCCCCC(=O)O)C(=O)O)C(=O)N[C@@H](CCC(N)=O)C(=O)N[C@@H](CCC(N)=O)C(=O)N[C@@H](CCC(=O)O)C(=O)N[C@@H](Cc1ccccc1)C(=O)N[C@H](C(=O)N[C@@H](CCC(=O)O)C(=O)N[C@@H](Cc1c[nH]c2ccccc12)C(=O)N[C@@H](CC(C)C)C(=O)N[C@@H](CC(C)C)C(=O)N[C@@H](C)C(=O)N[C@@H](CCC(N)=O)C(=O)N[C@@H](CCCCN)C(=O)N1CCC[C@H]1C(=O)N[C@@H](CO)C(=O)N[C@@H](CO)C(=O)NCC(=O)N[C@@H](C)C(=O)N1CCC[C@H]1C(=O)N1CCC[C@H]1C(=O)N1CCC[C@H]1C(=O)N[C@@H](CO)C(=O)O)C(C)C)[C@@H](C)CC
B5: AT697 (peptide)
peptide: [γGlu]GTFISDYSIA[Nle]DKIK(C16 diacid)QQDFVEWLLAQKPSSGAPPPS-OH
modifications: N-terminus assumed
SMILES: CCCC[C@H](NC(=O)[C@H](C)NC(=O)[C@@H](NC(=O)[C@H](CO)NC(=O)[C@H](Cc1ccc(O)cc1)NC(=O)[C@H](CC(=O)O)NC(=O)[C@H](CO)NC(=O)[C@@H](NC(=O)[C@H](Cc1ccccc1)NC(=O)[C@@H](NC(=O)CNC(=O)CC[C@H](N)C(=O)O)[C@@H](C)O)[C@@H](C)CC)[C@@H](C)CC)C(=O)N[C@@H](CC(=O)O)C(=O)N[C@@H](CCCCN)C(=O)N[C@H](C(=O)N[C@@H](CCCCNC(=O)CCCCCCCCCCCCCCC(=O)O)C(=O)N[C@@H](CCC(N)=O)C(=O)N[C@@H](CCC(N)=O)C(=O)N[C@@H](CC(=O)O)C(=O)N[C@@H](Cc1ccccc1)C(=O)N[C@H](C(=O)N[C@@H](CCC(=O)O)C(=O)N[C@@H](Cc1c[nH]c2ccccc12)C(=O)N[C@@H](CC(C)C)C(=O)N[C@@H](CC(C)C)C(=O)N[C@@H](C)C(=O)N[C@@H](CCC(N)=O)C(=O)N[C@@H](CCCCN)C(=O)N1CCC[C@H]1C(=O)N[C@@H](CO)C(=O)N[C@@H](CO)C(=O)NCC(=O)N[C@@H](C)C(=O)N1CCC[C@H]1C(=O)N1CCC[C@H]1C(=O)N1CCC[C@H]1C(=O)N[C@@H](CO)C(=O)O)C(C)C)[C@@H](C)CC
B6: AT698 (peptide)
peptide: [d(γGlu)]GTFISDYSIA[Nle]DKIK(C16 diacid)QQDFVEWLLAQKPSSGAPPPS-OH
modifications: N-terminus assumed
SMILES: CCCC[C@H](NC(=O)[C@H](C)NC(=O)[C@@H](NC(=O)[C@H](CO)NC(=O)[C@H](Cc1ccc(O)cc1)NC(=O)[C@H](CC(=O)O)NC(=O)[C@H](CO)NC(=O)[C@@H](NC(=O)[C@H](Cc1ccccc1)NC(=O)[C@@H](NC(=O)CNC(=O)CC[C@@H](N)C(=O)O)[C@@H](C)O)[C@@H](C)CC)[C@@H](C)CC)C(=O)N[C@@H](CC(=O)O)C(=O)N[C@@H](CCCCN)C(=O)N[C@H](C(=O)N[C@@H](CCCCNC(=O)CCCCCCCCCCCCCCC(=O)O)C(=O)N[C@@H](CCC(N)=O)C(=O)N[C@@H](CCC(N)=O)C(=O)N[C@@H](CC(=O)O)C(=O)N[C@@H](Cc1ccccc1)C(=O)N[C@H](C(=O)N[C@@H](CCC(=O)O)C(=O)N[C@@H](Cc1c[nH]c2ccccc12)C(=O)N[C@@H](CC(C)C)C(=O)N[C@@H](CC(C)C)C(=O)N[C@@H](C)C(=O)N[C@@H](CCC(N)=O)C(=O)N[C@@H](CCCCN)C(=O)N1CCC[C@H]1C(=O)N[C@@H](CO)C(=O)N[C@@H](CO)C(=O)NCC(=O)N[C@@H](C)C(=O)N1CCC[C@H]1C(=O)N1CCC[C@H]1C(=O)N1CCC[C@H]1C(=O)N[C@@H](CO)C(=O)O)C(C)C)[C@@H](C)CC

biological target: T1, human GIP receptor (human, UniProt P48546 22-466); experiment: cell-based or functional assay
T1 sequence (looked up): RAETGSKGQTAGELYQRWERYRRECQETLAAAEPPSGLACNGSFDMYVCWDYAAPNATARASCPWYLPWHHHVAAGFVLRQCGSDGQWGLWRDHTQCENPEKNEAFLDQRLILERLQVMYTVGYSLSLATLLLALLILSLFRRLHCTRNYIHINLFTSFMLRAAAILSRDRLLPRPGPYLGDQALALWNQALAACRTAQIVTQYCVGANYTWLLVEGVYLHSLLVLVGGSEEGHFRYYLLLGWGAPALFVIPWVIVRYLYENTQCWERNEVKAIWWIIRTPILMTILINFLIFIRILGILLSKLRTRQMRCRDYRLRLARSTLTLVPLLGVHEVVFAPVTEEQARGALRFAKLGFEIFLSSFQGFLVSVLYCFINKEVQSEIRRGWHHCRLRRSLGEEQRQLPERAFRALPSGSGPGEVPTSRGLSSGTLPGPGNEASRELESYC

In order of rising “cAMP agonism % Emax” value:
1. B1  0%
2. B3  0%
3. B4  0%
4. [βGlu]GTFISDYSIA[Nle]DKIK(C16 diacid)QQDFVEWLLAQKPSSGAPPPS-OH [AT699]  0%
5. B2  4%
6. B5  8%
7. B6  8%

In order of rising “cAMP antagonism” value:
1. B4  0.584 nM
2. B3  0.794 nM
3. B1  1.26 nM
4. B2  1.47 nM
5. B5  2.82 nM
6. [βGlu]GTFISDYSIA[Nle]DKIK(C16 diacid)QQDFVEWLLAQKPSSGAPPPS-OH [AT699]  6.31 nM
7. B6  9.26 nM

In order of rising “cAMP antagonism % inhib” value:
1. B6  78%
2. B5  81%
3. B2  88%
4. [βGlu]GTFISDYSIA[Nle]DKIK(C16 diacid)QQDFVEWLLAQKPSSGAPPPS-OH [AT699]  88%
5. B1  96%
6. B4  97%
7. B3  98%

In order of falling “cAMP antagonism pIC50” value:
1. B4  9.2
2. B3  9.1
3. B1  8.9
4. B2  8.8
5. B5  8.6
6. [βGlu]GTFISDYSIA[Nle]DKIK(C16 diacid)QQDFVEWLLAQKPSSGAPPPS-OH [AT699]  8.2
7. B6  8
